This note sets out measurements from patent US11858972B2, “Micropeptides and uses thereof” (FUNDACIÓ PRIVADA INSTITUT D'INVESTIGACIÓ ONCOLÒGICA DE VALL …, priority 2018, dated 2024).

Test [1] concerns BxPC-3 pancreatic cancer cell line. Put plainly: Cell viability by CellTiter-Glo after doxycycline-induced expression. To be noted: BxPC-3, expression induced by doxycycline for 4 days. The format is cell-based. The source says: (§1) FIG. 5. Micropeptide of sequence SEQ ID NO: 1 overexpression induces cell cycle arrest and cellular senescence. BxPC-3 cells were transduced with an inducible lentivirus coding HA-SEQ ID NO: 1. Micropeptide of sequence SEQ ID NO: 1 expression was induced by doxycycline treatment for 4 days. (A) Phase contrast images of SEQ ID NO:1-expressing cells and control cells. (B) Cell viability analysis by CellTiter-Glo assay. (C) Cell cycle analysis by flow cytometry. Left, histogram plots. Right, quantification of the number of cells in every cell cycle phase (D) Analysis of p27 and p21 expression by qPCR. (E) Western Blot of the indicated cells using anti-HA and anti-p21 antibodies. (F) Quantification of the number of SA-β-Gal positive cells in doxycycline-treated and untreated cells. (G) Representative pictures of the cell quantified in (F). Graphs show the mean±SEM, using at least 3 technical replicates. **P<0.01 ***P<0,001 **** P<0.0001, two-tailed t-test.
Micropeptide of SEQ ID NO: 1 expression was induced in BxPC3 cells by treatment with doxycycline (2 μg/ml) for 4 days. Cells were fixed using 100% ethanol at 4° C., stained with Propidium Iodide, and cell cycle was analysed by flow cytometry (LSR-Fortessa cytometer). Cell viability in micropeptide of SEQ ID NO: 1-expressing cells was evaluated using CellTiter-Glo 2.0 (Promega) following manufacturer's instructions.
In general terms: ATP-based viability assays read luminescence as a measure of living cells.

For test [2], the system named is squamous cell carcinoma cell line H10. Put plainly: Cell proliferation assay (growth curve, 14 days). The format is cell-based. As to conditions: H10, monitored for 14 days, vs control vector. The source says:
(§2) FIG. 8. SEQ ID NO: 1 overexpression reduces cell proliferation. A549 and H10 cells were transduced with an inducible lentivirus coding HA-SEQ ID NO: 1. SEQ ID NO: 1 expression was induced by doxycycline treatment for 14 days. (A) Growth curve of transduced cells over 14 days of SEQ ID NO:1 expression. (B) Cell cycle analysis by flow cytometry. Left, histogram plots. Right, quantification of the number of cells in every cell cycle phase. Graphs show the mean±SD, using at least 3 technical replicates. **** P<0.0001, two-tailed t-test.
(§3) A549 and H10 cell lines were dissociated by trypsin digestion and seeded into 24-well cell culture plates at density 5×10^3 cells/well. Every two days, cells were dissociated from wells and counted using a Neubauer chamber. Cell growth curves were monitored for 14 days.

Test [3] concerns Lung cancer cell line A549. Put plainly: Cell proliferation assay (growth curve, 14 days). In kind it is cell-based, human. As to conditions: A549, monitored for 14 days, vs control vector.
From the text: as §2, §3

Test [4] has as its system protein ubiquitylation pattern in BxPC-3 infected cells. The test can be described thus: Ubiquitylated protein levels by Western Blot after MG132. The format is cell-based. To be noted: proteasome blocking with MG132. The source says:
FIG. 11. Micropeptide of sequence SEQ ID NO: 1 expression changes cell ubiquitylation pattern. (A) Co-Immunoprecipitation using Anti-HA and Western Blot experiments indicate the presence of ubiquitylated proteins in the pull down of SEQ ID NO: 1 expressing cells. (B) Analysis of ubiquitylated protein levels by Western Blot in SEQ ID NO: 1 or empty vector BxPC-3 infected cells after proteasome blocking treatment with MG132.
(A western blot detects proteins with antibodies after separation by electrophoresis.)

The test system of test [5] is H10 cancer cells. Put plainly: Invasion assay (Boyden chamber, Matrigel). The format is cell-based. To be noted: H10, after 4 days of doxycycline induction, 24 h invasion. The method, then: FIG. 9. SEQ ID NO: 1 overexpression impairs invasiveness and reduces mesenchymal traits in A549 and H10 cell lines. Invasion of indicated cells was analyzed in matrigel-coated inserts. (A) The undersides of membrane inserts containing invaded cells were fixed and stained with crystal violet and photographed 24 h after plating. (B) Number of invasive cells was calculated using ImageJ software. Bars plots show relative number of cells invading the chamber. (C) Analysis of several mesenchymal genes by qPCR. mRNA expression is shown relative to the control. * P<0.05, **P<0.01 two-tailed t-test.
BxPC-3, MDA-MB-231, A549 and H10 cell lines were trypsinized, counted, and 20.000 cells/well were seeded in triplicate in a Corning® cell culture insert (Boyden chamber) in which the porous membrane is coated with a layer of Matrigel® to mimic an extra cellular matrix (ECM). Cells were allowed to invade through the coated membrane for 24 hours in the cell incubator at 37° C. After the incubation time, culture inserts were fixed in methanol 5 minutes at RT and stained using Crystal Violet 20 minutes at RT. The excess of Crystal Violet staining was removed washing with PBS and pictures of the chambers were taken using an Olympus CeIIR microscope. Invading cells were counted using ImageJ and fold change was calculated normalizing to the control.

Test [6] has as its system SkBR-3, HPAF II, MIA PaCa-2 and BxPC-3 cells. The test can be described thus: Cell death upon puromycin selection stress (phase contrast images). The format is cell-based. As to conditions: Puromycin selection of infected cells, pMSCV non-inducible vector; several pancreatic and breast cancer cell lines. The method, then: (§4) FIG. 6. Micropeptide of sequence SEQ ID NO: 1 expression induces cell death upon cellularstress. SkBR-3, HPAF II, MIA PaCa-2 and BxPC-3 cells were infected with empty or SEQ ID NO: 1-HA retroviruses, and selected by puromycin. Micropeptide of sequence SEQ ID NO: 1 expression was analyzed by qPCR (A) and by Western blot (B). (C) Phase contrast images of the indicated cells 3 days after selection with puromycin. […] (E) BXPC-3 cells were infected with an inducible lentivirus encoding SEQ ID NO: 1-HA, and selected with Neomycin. Micropeptide of sequence SEQ ID NO: 1 expression was induced by doxycycline, and cells were treated with Doxorubicin or Actinomycin D. (E) Cell viability of the indicated cells measured by crystal violet staining.

Test [7] concerns BxPC-3 cells. Put plainly: SA-β-gal staining assay. In kind it is cell-based. To be noted: BxPC-3, doxycycline-treated vs untreated.
From the text: as §1
For SA-β-gal staining, cells were fixed and stained using a commercial senescence β-galactosidase staining kit (Cell Signalling) following manufacture's protocol.

Test [8] has as its system BxPC-3 cells. The test can be described thus: Drug sensitivity assay, cell viability by crystal violet. In kind it is cell-based. On the set-up: cell death induced by Doxorubicin: dose or concentration left out as unconfirmed. As to conditions: days 2 to 4. As for the experimental part: as §4, with “staining. For drug sensitivity assays, doxycycline induction was coupled with Doxorubicin ([…]) or Actinomycin D (5 nM) (from days 2 to 4), and cell viability was measured by staining with crystal violet.” for “staining.”

B1: SEQ ID NO: 1: highly conserved 87 aa micropeptide coded by the lncRNA TINCR; predicted ubiquitin-like protein (protein, listed as Homo sapiens)
chain: MEGLRRGLSRWKRYHIKVHLADEALLLPLTVRPRDTLSDLRAQLVGQGVSSWKRAFYYNARRLDDHQTVRDARLQDGSVLLLVSDPR
For the molecule B1, the cell proliferation result in test [1] was “significantly reduces cell proliferation”. Further, the growth rate entry in test [2] and in test [3] was “consistently lower growth rate” in each case. In test [4], the protein ubiquitylation pattern result is “alters protein ubiquitylation pattern”. In test [5], the invasion entry is given as “significant decrease in invasion”. In test [6], the “cell death when coupled with cellular stress” value was “extensive cell death”. For the same molecule, the “number of senescent cells (SA-β-Gal-positive cells)” value in test [7] is recorded as “increase”. Also, in test [8] (BxPC-3, doxycycline induction coupled with Actinomycin D (5 nM)), the “cell death induced by Actinomycin D” value is reported as “sensitizes to cell death”. Further, the “cell death induced by Doxorubicin” value in test [8] (BxPC-3, doxycycline induction coupled with Doxorubicin) is “sensitizes to cell death”.
